{"source": "paper PMC3901395", "about": "“Multivalent interactions of the SUMO-interaction motifs in RING finger protein 4 determine the specificity for chains of the SUMO” (Biochemical Journal, 2013)", "binders": {"B1": {"name": "single PIAS1 peptide (peptide)", "chain": "KVEVIDLTIDSSSDEEEEEP", "modifications": "exact peptide ends are only in Figure 2A; limits set around the VIDLT core plus C-terminal acidic flank; termini unknown"}}, "target": "T1, mono-SUMO2 (UniProt P61956 12-93)", "T1 construct": "SUMO2-ΔN11 monomer (first 11 residues missing) ending with the C-terminal GG motif and a stop codon; The methods describe the monomers from the pGEX-4T2 plasmids as ΔN11; also called SUMO2-ΔN11 monomer; source: E. coli Rosetta 2(DE3)pLysS, purified (glutathione beads, thrombin cleavage, anion exchange, SEC)", "T1 sequence (P61956 12-93)": "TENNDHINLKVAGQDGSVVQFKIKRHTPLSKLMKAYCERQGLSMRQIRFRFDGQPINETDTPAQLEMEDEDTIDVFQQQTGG", "assay": "ITC; VP-ITC or ITC200; 25°C; ITC buffer (50 mM Tris/HCl, pH 7.5, 150 mM NaCl, 2 mM DTT, 5% glycerol); SUMOs titrated into a solution of the RNF4 construct or peptide (legends of Figures 1B, 2B); 20–30 injections up to 2–3-fold molar excess; values averaged from two to six titrations", "settings": "both partners purified"}
{"binder": "B1", "values": [{"measurement": "Kd", "value": 16, "unit": "µM"}]}
